# Measurements taken from publication PMC3898768, “The TBC/RabGAP Armus Coordinates Rac1 and Rab7 Functions during Autophagy” (Developmental Cell, 2013).
# Assays:
# [1] = target: T1, cleaved active Rac1 (Rac^Q61L) (UniProt P63000 1-192, Q61L); assay: pull-down; purified proteins: GST-Armus 1-550 incubated with cleaved Rac Q61L with or without increasing amounts of MBP-LC3 (molar ratios shown in the figure); probed for Rac1 or LC3; settings: both partners purified
# [2] = target: T1, cleaved active Rac1 (Rac^Q61L); assay: pull-down; purified proteins: GST fusion protein (GST-LC3, or GST-Armus 1-550 wild-type or mutants) incubated with cleaved Rac Q61L; probed for Rac1; settings: both partners purified
Binder,binding result [1],binding result [2]
"GST-Armus 1-550 wild-type (domain or fragment, Armus (TBC1D2A, isoform 1; UniProt Q9BYX2-1), residues 1-550; also called GST-Armus_(1–550) wild-type (WT); source: 'purified proteins') MEGAGENAPESSSSAPGSEESARDPQVPPPEEESGDCARSLEAVPKKLCGYLSKFGGKGPIRGWKSRWFFYDERKCQLYYSRTAQDANPLDSIDLSSAVFDCKADAEEGIFEIKTPSRVITLKAATKQAMLYWLQQLQMKRWEFHNSPPAPPATPDAALAGNGPVLHLELGQEEAELEEFLCPVKTPPGLVGVAAALQPFPALQNISLKHLGTEIQNTMHNIRGNKQAQGTGHEPPGEDSPQSGEPQREEQPLASDASTPGREPEDSPKPAPKPSLTISFAQKAKRQNNTFPFFSEGITRNRTAQEKVAALEQQVLMLTKELKSQKELVKILHKALEAAQQEKRASSAYLAAAEDKDRLELVRHKVRQIAELGRRVEALEQERESLAHTASLREQQVQELQQHVQLLMDKNHAKQQVICKLSEKVTQDFTHPPDQSPLRPDAANRDFLSQQGKIEHLKDDMEAYRTQNCFLNSEIHQVTKIWRKVAEKEKALLTKCAYLQARNCQVESKYLAGLRRLQEALGDEASECSELLRQLVQEALQWEAGEASSD",binds,–
"GST-Armus 1-550 W142A,Y510A (domain or fragment, Armus (TBC1D2A, isoform 1; UniProt Q9BYX2-1), residues 1-550, double point mutant; also called Armus^W142A,Y510A; source: 'purified proteins') MEGAGENAPESSSSAPGSEESARDPQVPPPEEESGDCARSLEAVPKKLCGYLSKFGGKGPIRGWKSRWFFYDERKCQLYYSRTAQDANPLDSIDLSSAVFDCKADAEEGIFEIKTPSRVITLKAATKQAMLYWLQQLQMKRAEFHNSPPAPPATPDAALAGNGPVLHLELGQEEAELEEFLCPVKTPPGLVGVAAALQPFPALQNISLKHLGTEIQNTMHNIRGNKQAQGTGHEPPGEDSPQSGEPQREEQPLASDASTPGREPEDSPKPAPKPSLTISFAQKAKRQNNTFPFFSEGITRNRTAQEKVAALEQQVLMLTKELKSQKELVKILHKALEAAQQEKRASSAYLAAAEDKDRLELVRHKVRQIAELGRRVEALEQERESLAHTASLREQQVQELQQHVQLLMDKNHAKQQVICKLSEKVTQDFTHPPDQSPLRPDAANRDFLSQQGKIEHLKDDMEAYRTQNCFLNSEIHQVTKIWRKVAEKEKALLTKCAYLQARNCQVESKALAGLRRLQEALGDEASECSELLRQLVQEALQWEAGEASSD",–,binds
